T1: human follicle stimulating hormone receptor (human, UniProt P23945 18-695)
T1 construct: whole, on cells; also called human FSHR; human FSH receptor
T1 sequence (looked up): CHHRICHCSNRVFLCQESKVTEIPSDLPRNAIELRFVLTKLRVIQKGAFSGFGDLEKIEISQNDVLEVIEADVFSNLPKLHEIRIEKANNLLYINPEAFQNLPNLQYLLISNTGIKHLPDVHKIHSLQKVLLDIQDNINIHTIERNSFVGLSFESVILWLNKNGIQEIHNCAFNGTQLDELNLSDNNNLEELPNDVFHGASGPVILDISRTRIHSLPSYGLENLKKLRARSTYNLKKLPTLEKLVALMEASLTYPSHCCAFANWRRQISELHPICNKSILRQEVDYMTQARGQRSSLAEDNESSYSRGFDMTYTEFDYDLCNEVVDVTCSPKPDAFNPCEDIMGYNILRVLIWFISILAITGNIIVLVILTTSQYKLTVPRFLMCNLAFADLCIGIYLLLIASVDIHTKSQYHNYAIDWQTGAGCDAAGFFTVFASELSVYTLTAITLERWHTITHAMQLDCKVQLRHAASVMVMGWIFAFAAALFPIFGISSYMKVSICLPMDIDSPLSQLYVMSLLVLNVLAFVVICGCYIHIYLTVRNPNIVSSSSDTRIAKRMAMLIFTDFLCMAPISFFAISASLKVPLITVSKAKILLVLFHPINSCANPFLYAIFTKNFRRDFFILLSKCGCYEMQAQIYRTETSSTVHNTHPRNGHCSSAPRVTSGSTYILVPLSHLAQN


Assays:
human serum albumin [1] = target: T2, human serum albumin (human, UniProt P02768 25-609); experiment: BLI (Octet Red), HSA immobilised on AR2G sensor, pH 6.0
T2 construct: Immobilised on an AR2G biosensor; also called HSA; human serum albumin (Sigma)
T2 sequence (P02768 25-609 limits assumed): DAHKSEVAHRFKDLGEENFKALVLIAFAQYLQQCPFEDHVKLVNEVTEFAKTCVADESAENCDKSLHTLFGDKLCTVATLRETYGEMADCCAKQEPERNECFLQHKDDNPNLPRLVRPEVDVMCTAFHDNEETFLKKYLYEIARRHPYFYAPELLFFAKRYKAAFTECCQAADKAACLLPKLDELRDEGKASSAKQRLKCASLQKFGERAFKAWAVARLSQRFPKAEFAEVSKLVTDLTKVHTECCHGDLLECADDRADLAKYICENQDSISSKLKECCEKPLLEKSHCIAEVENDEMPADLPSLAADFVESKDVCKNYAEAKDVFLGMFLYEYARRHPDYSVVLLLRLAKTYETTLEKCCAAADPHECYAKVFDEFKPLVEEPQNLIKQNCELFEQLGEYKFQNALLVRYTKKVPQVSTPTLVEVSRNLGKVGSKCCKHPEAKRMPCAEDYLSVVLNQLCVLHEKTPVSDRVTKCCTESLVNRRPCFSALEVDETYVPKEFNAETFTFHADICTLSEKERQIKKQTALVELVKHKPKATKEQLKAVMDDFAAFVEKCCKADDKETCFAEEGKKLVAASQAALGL
Description: (§1) By using Bio-Layer Interferometry (BLI) and Octet® BLI systems (Octet® Red, Sartorius, Germany), the binding ability of the SAFA-FSH protein to human serum albumin was analyzed. On an AR2G biosensor chip (Sartorius, Germany), human serum albumin (Sigma) was immobilized at a concentration of 30 μg/mL with a 10 mM acetate buffer pH 5.0, and the SAFA-FSH protein was added thereto at concentrations of 6.25 nM, 3.125 nM, 1.56 nM, and 0.78 nM (association: 600 s, dissociation: 900 s), so as to confirm the binding ability between the two under conditions of pH 7.4 or pH 6.0 conditions.

human serum albumin [2] = target: T2, human serum albumin; experiment: BLI (Octet Red), HSA immobilised on AR2G sensor, pH 7.4
Description: as §1

[3] = target: T1, human follicle stimulating hormone …; experiment: flow cytometry on human FSHR stable HEK293 cells, detection with goat anti-human IgG Fd-FITC
Description: By using a human FSHR stable cell line (HEK293, Creative Biogene, USA) expressing human FSH receptors on the surface, the binding between the SAFA-FSH protein and the FSH receptors was analyzed with a CytoFLEX flow cytometer (Beckman Coulter, USA).
Subsequently, the binding between the SAFA-FSH protein and the human FSHR was confirmed by using the human FSHR stable cell line in which the expression of human FSHR was confirmed. Specifically, the human FSHR stable cells were dissolved in MACS buffer (PBS containing 0.5% BSA and 2 mM EDTA) at a concentration of 1×10⁶ cells/ml, and then added in an amount of 100 μl (1.0×10⁵ cells/test) to a 1.7 ml tube. The cells were then centrifuged at 500×g at 4° C. for 5 minutes. After removing the supernatant from the 1.7 ml tube, 100 μl each of the SAFA-FSH protein and the SL335 fragment that were diluted with MACS buffer at a concentration from 1,000 nM to 0.064 nM was added to the same tube to proceed a reaction at 4° C. for 30 minutes. After 500 μl of MACS buffer was added to the tube and the cells were centrifuged at 500×g at 4° C. for 5 minutes, the supernatant was removed therefrom to remove unbound proteins. 100 μl of goat anti-human IgG Fd-FITC (Southern Biotech, USA) antibody diluted with MACS buffer at a ratio of 1:500 was added to the tube to proceed a reaction at 4° C. for 30 minutes. […]

Row | Kd (human serum albumin [1]) [nM] | koff (human serum albumin [1]) [s⁻¹] | kon (human serum albumin [1]) [M⁻¹ s⁻¹] | Kd (human serum albumin [2]) [nM] | koff (human serum albumin [2]) [s⁻¹] | kon (human serum albumin [2]) [M⁻¹ s⁻¹] | binding result [3] | Binder
1 | 0.313 | 0.000149 | 475000 | 0.359 | 0.000136 | 379000 | – | SAFA-FSH-B protein (other, Anti-serum-albumin Fab SL335 with hFSH beta on the C-terminus of CH1 and hFSH alpha on the C-terminus of CL; also called SAFA-FSH protein; recombinant fusion protein) heavy: QVQLVQSGGGPVKPGGSLRLSCAASGFMFRAYSMNWVRQAPGKGLEWVSSISSSGRYIHYADSVKGRFTISRDNAKNSLYLQMNSLRAEDTAVYYCARETVMAGKALDYWGQGTLVTVSSASTKGPSVFPLAPSSKSTSEGTAALGCLVKDYFPEPVTVSWNSGALTSGVHTFPAVLQSSGLYSLSSVVTVPSSSLGTQTYICNVNHKPSNTKVDKKVEPKSSGGGGSGGGGSGGGGSNSCELTNITIAIEKEECRFCISINTTWCAGYCYTRDLVYKDPARPKIQKTCTFKELVYETVRVPGCAHHADSLYTYPVATQCHCGKCDSDSTDCTVRGLGPSYCSFGEMKE light: not shown
2 | – | – | – | – | – | – | no binding (tested: 1000 nM) | SL335 fragment (Fab, V domains shown, Fab without FSH, used as the control in the FSHR flow cytometry assay; also called human anti-serum albumin Fab antibody fragment) VH: QVQLVQSGGGPVKPGGSLRLSCAASGFMFRAYSMNWVRQAPGKGLEWVSSISSSGRYIHYADSVKGRFTISRDNAKNSLYLQMNSLRAEDTAVYYCARETVMAGKALDYWGQGTLVTVSS VL: DIVLTQSPGTLSLSPGETATLSCRASQSVGSNLAWYQQKPGQAPRLLIYGASTGATGVPARFSGSRSGTDFTLTITSLQPEDFATYYCQQYYSFLAKTFGQGTQLEIKR
